{"source": "paper PMC3655159", "key": {"[1]": {"target": "HSV-1 gB ectodomain gB730 (residues 31-730) (HSV-1 (strain KOS)) (UniProt P06437)", "assay": "SDS-PAGE under mildly denaturing conditions + Western blot"}, "[2]": {"target": "HSV-1 gB ectodomain gB730 (residues 31-730) (HSV-1 (strain KOS)) (UniProt P06437)", "assay": "SDS-PAGE under mildly denaturing conditions"}}, "data": [{"substance": "HSV-1 gB ectodomain gB730 (residues 31-730) (from UniProt P06437 31-730) (domain or fragment)", "values": [{"measurement": "stoichiometry N", "setting": "[1]", "value": 3}, {"measurement": "stoichiometry N", "setting": "[2]", "value": 3}]}]}
